This is an account of results in paper doi:10.1101/2022.12.14.520423.

The data set concerns the target T1, CLAMP (CLAMPmel) (Drosophila melanogaster, UniProt Q9V9N4 1-561).
T1 sequence: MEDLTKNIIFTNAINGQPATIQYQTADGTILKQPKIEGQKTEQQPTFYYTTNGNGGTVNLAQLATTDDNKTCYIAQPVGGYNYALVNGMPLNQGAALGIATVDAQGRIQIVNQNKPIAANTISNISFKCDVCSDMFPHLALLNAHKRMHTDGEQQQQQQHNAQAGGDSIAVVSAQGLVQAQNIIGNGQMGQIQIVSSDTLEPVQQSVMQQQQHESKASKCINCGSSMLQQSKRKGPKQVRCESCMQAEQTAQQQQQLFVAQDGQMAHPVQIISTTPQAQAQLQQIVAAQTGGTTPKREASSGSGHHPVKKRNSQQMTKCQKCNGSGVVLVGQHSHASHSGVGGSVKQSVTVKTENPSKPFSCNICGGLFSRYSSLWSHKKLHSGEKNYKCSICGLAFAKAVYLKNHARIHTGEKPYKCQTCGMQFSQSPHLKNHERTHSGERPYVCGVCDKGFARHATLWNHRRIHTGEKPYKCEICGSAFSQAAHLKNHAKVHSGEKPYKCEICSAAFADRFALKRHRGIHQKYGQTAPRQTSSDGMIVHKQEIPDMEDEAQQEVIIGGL
The data set can be described thus: EMSA.

B1: Dvir 2 (dsDNA)
DNA 1: TACCAAAAACTCAAAAAGACGAGCGAGTGAAAACATATTTCCATCTCGCTCACATACTAC
DNA 2: GTAGTATGTGAGCGAGATGGAAATATGTTTTCACTCGCTCGTCTTTTTGAGTTTTTGGTA
For B1, the binding result is “binds”.
